# Data from publication doi:10.1101/2021.03.11.435015.
# Target: Myc-PUM1-R1147W (human) (UniProt Q14671)
# Test: co-IP
substance,measurement,value
GST-CNOT1 (from UniProt A5YKK6 1-2376) (natural protein),percent by which the interaction is diminished against Myc-PUM1-WT,35%
